This series can be described thus: yeast display, Sf9 membrane polyspecificity reagent, FACS + sequencing; frameworks hold sequencing errors. An outline of the steps:
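Polyreactivity labels are assigned by the sorting gate from which each nanobody was recovered. The gates were low and high (top ~1%), set on anti-HA fluorescence for expression and streptavidin fluorescence for reagent binding. Before sorting, galactose-induced (36–48 hours) yeast display cells were stained for 1 hour at 4 °C with 10% biotinylated, detergent-solubilized Sf9 membrane reagent.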
“QVQLVESGGGLVQAGGSLRLSCAASGFIFTRNAMGLYRQAPGTERELVAVISYGGGSTYYADSVKGRFTISRDNAKNTVYLQMNSLKPEDTAVYYCAADQNWRYYYHYTYYYWGQGTQVTVSS”: the “polyreactivity (PSR sort gate)” value is reported as “high polyreactivity”.

For the sequence “QVQLVESGGGLVQAGGSLRLSCAASGFIFTRYAMGWYRQAPGKERELVAVITSSGGTYYADSVKGRFTISRDNAKNTVYLQMNSLKPEDTAVYYCNAVLGYYTYDYWGQGTQVTVSS”, the “polyreactivity (PSR sort gate)” value was “high polyreactivity”.

Turning to “QVQLVESGGGLVQAGGSLRLSCAASGFIFTVNAMGWYRQAPGKDRELVAAITSGGNTYYADSVKGRFTISRDNAKNTVYLQMNSLKPEDTAVYYCNAVFYTWSPYGTTVRSYGYWGQGTQVTVSS”, the “polyreactivity (PSR sort gate)” value is “high polyreactivity”.

Turning to “QVQLVESGGGLVQAGGSLRLSCAASGFIFTYYAMGWYRQAPGKERELVAAITVRGGSTYYADSVKGRFTISRDNAKNTVYLQMNSLKPEDTGVYYCNTVHGLWRRYNYWGQGTQVTVSS”, the “polyreactivity (PSR sort gate)” value is given as “high polyreactivity”.

As to “QVQLVESGGGLVQAGGSLRLSCAASGFIFTYYDMGWYRQAPGKERELVASISWDGGRTYYADSVKGRFTISRDNAKNTVYLQMNSLKPEDTAVYYCNADGSSYWYPVPLDGGDYWGQGTQVTVSS”, the “polyreactivity (PSR sort gate)” value is reported as “low polyreactivity”.

As for “QVQLVESGGGLVQAGGSLRLSCAASGFIFVANAMGWYRQAPGKEREFFAAISSSGGRTYYADSVKGRFTISRDNAKNTVYLQMNSLKPEDTAVYYCAKDRVFSRRGFGYWGQGTQVTVSS”, the “polyreactivity (PSR sort gate)” value is “low polyreactivity”.

Regarding “QVQLVESGGGLVQAGGSLRLSCAASGFIFVDYDMGWYSQAPGKERELVAAINWSGGSTDYADSVKGRFTISRDNAKNTVYLQMNSLKPEDTAVYYCAAEGQDGRFYWGQGTQVTVSS”, the “polyreactivity (PSR sort gate)” value is reported as “low polyreactivity”.

Regarding “QVQLVESGGGLVQAGGSLRLSCAASGFIFVHNAMGWYRQAPGKERELVATISRRGGSTYYADSVKGRFTISRDNAKNTVYLQMNILKPEDTAVYYCAARTYGYYLYDYWGQGTQVTVSS”, the “polyreactivity (PSR sort gate)” value is reported as “high polyreactivity”.

As for “QVQLVESGGGLVQAGGSLRLSCAASGFIFVIYAKGWYRQAPGKERELVARISFRSGRTYYADSVKGRFTISRDNAKNTVYLQMNSLKPEDTAVYYCNAVLYGQYKYDYWGQGTQVTVSS”, the “polyreactivity (PSR sort gate)” value is listed as “high polyreactivity”.

Consider “QVQLVESGGGLVQAGGSLRLSCAASGFIFVIYAMGWYRQAPGKERELVARISFRSGRTYYADSVKGRFTISRDNAKNTVYLQMNSLKPEDTAVYYCNAVLYGQYKYDYWGQGTQVTVSS”, for which the “polyreactivity (PSR sort gate)” value is given as “high polyreactivity”.

As to “QVQLVESGGGLVQAGGSLRLSCAASGFIFVKYAMGWYRQAPGKERELVAAISWSGGTTYYADSVKGRFTISRDNANNTVYLQMNSLKPEDTAVYYCAAEYYTGYFKYDYWGQGTQVTVSS”, the “polyreactivity (PSR sort gate)” value is “high polyreactivity”.

In the case of “QVQLVESGGGLVQAGGSLRLSCAASGFIFVPYAMGWYRQAPGKERELVAAIDTSGGNTYADSVKGRFTISRDNAKNTVYLQMNSLKPEDTAVYYCAARYQWDWRDYYYWGQGTQVTVSS”, the “polyreactivity (PSR sort gate)” value is on record as “low polyreactivity”.

For “QVQLVESGGGLVQAGGSLRLSCAASGFIFVPYAMGWYRQAPGKERELVATITWRGDSTYYADSVKGRFTISRDNAKNTVYLQMNSLKPEDTAVYYCAAVGPIRGYSSDEYWGQGTQVTVSS”, the “polyreactivity (PSR sort gate)” value was “low polyreactivity”.

Regarding “QVQLVESGGGLVQAGGSLRLSCAASGFIFVRNAMGWYRQAPGKERELVAAITGRGGRTYYADSVKGRFTISRDNAKNTVYLQMNSLKPEDTAVYYCAKDSPDDHFGYWGQGTQVTVSS”, the “polyreactivity (PSR sort gate)” value is recorded as “high polyreactivity”.

As for “QVQLVESGGGLVQAGGSLRLSCAASGFIFVRYAMGWYRLAPGKEREFVAAISGGAGSSYYADSVKGRFTISRDNAKNTVYLQMNSLKPEDTAVYYCNRVRSLRYGYWGQGTQVTVSS”, the “polyreactivity (PSR sort gate)” value was “high polyreactivity”.

Take “QVQLVESGGGLVQAGGSLRLSCAASGFIFVSNAMGWYRQAPGKERELVATITNGDRTYYADSVKGRFPISRDNAKNTVYLQMNSLKPEDTAVYYCNADFRAREVFLFDSWGQGTQVTVSS”: the “polyreactivity (PSR sort gate)” value was “low polyreactivity”.

For “QVQLVESGGGLVQAGGSLRLSCAASGFIFVSYSLGWYRQAPGKERELVAAIDRIGGITYYADSVKGRFTISRDNSKNTVYLQMNSLKPEDTAVYYCAAAASYATVRVGREYYWGQGTHVTVSS”, the “polyreactivity (PSR sort gate)” value was “low polyreactivity”.

Consider “QVQLVESGGGLVQAGGSLRLSCAASGFIFVTYAMGWYRQAPGKERELVAAITNSGGTTYYADSVKGRFTISRDNAKNTVYLQMNSLKPEDTAVYYCNKPYGAETAHREFDYWGQGTHVTVSS”, for which the “polyreactivity (PSR sort gate)” value is “low polyreactivity”.

On to “QVQLVESGGGLVQAGGSLRLSCAASGFIFVTYAMGWYRQAPGKERELVAAITNSGGTTYYADSVKGRFTISRDNAKNTVYLQMNSLKPEDTAVYYCNKPYGAETAHREFDYWGQGTQLTVSS”, for which the “polyreactivity (PSR sort gate)” value was “low polyreactivity”.

As for “QVQLVESGGGLVQAGGSLRLSCAASGFIFVVYAMGWYRQAPGQERELVAAITYSGGSTYYADSVKGRFTISRDNAKNTVYLQMNSLKPEDTAVYYCAAPEHDREFDYWGQGTQVTVSS”, the “polyreactivity (PSR sort gate)” value is given as “low polyreactivity”.

Regarding “QVQLVESGGGLVQAGGSLRLSCAASGFIFVVYDMGWYRQAPGKERELVAGIDTSGADTYYADSVKGRFTISRDNAKNTVYLQMNRLKPEDPAVYYCAAETITDDYYEYDYWGQGTQVTVSS”, the “polyreactivity (PSR sort gate)” value is “low polyreactivity”.

Take “QVQLVESGGGLVQAGGSLRLSCAASGFIFVYNDMGWYRQAPGKERELVASISNGDNTNYADSVKGRFTISRDNAKNTVYLQMNSLKPEDTAVYYCAARGTIYVLGVPARPVPDGDYWGQGTQVTVSS”: the “polyreactivity (PSR sort gate)” value is “low polyreactivity”.

Consider “QVQLVESGGGLVQAGGSLRLSCAASGFIFVYYAMGWYRQAPGKERELVAAISKRGGNTYYADSVKGRFTISRDNAKNTVYLQMNSLKPEDTAVYYCAADGPGHYYAELEYDYWGQGTQVTVSS”, for which the “polyreactivity (PSR sort gate)” value is “high polyreactivity”.

In the case of “QVQLVESGGGLVQAGGSLRLSCAASGFIFVYYAMGWYRQAPGKERELVAAITSDVNTYYADSVKGRFTISRDNAKNTVYLQMNSLKPEDTAVYYCNADADDYRDYQDYDYWGQGTQVTVSS”, the “polyreactivity (PSR sort gate)” value was “low polyreactivity”.

For “QVQLVESGGGLVQAGGSLRLSCAASGFIFVYYARGWYRQAPGKEMELVAAISRGGSTYYADSVKGRFTISRDNAKNTVYLQMNSLKPEDTAFYYCNKVLPYGREYGYWGQGTQVTVSS”, the “polyreactivity (PSR sort gate)” value was “high polyreactivity”.

“QVQLVESGGGLVQAGGSLRLSCAASGFIFWEYAMGWYRQAPGKERELVAAISTSGGSTYYADSVKGRFTISRDNAKNTVYLQMISLKPEDTAVYYCAVDGWDDTYFRQDMDYWGQGTQVTVSS”: the “polyreactivity (PSR sort gate)” value is reported as “low polyreactivity”.

“QVQLVESGGGLVQAGGSLRLSCAASGFIFWFNDMGWYRQAPGKERELVATISWSDTSTYYADSVKGRFTISRDNAKNTVYLQMTSLKPEDTAVYYCATDGRETCLPEYYWGQGTQVTVSS”: the “polyreactivity (PSR sort gate)” value is listed as “low polyreactivity”.

Turning to “QVQLVESGGGLVQAGGSLRLSCAASGFIFWFYAMGWYRQAPGKEREFVATISRGGSKNYADSVKGRFTISRDNAKNTVYFKINSLKAEDTEVYYCAAARSSYWKTIRAFTMDYWGQGTQVTVSS”, the “polyreactivity (PSR sort gate)” value was “high polyreactivity”.

As for “QVQLVESGGGLVQAGGSLRLSCAASGFIFWLYAMGWYIQAPGKERELVASINWSGGDTYYADSVKGRFTISRDNAKNTFYLQMNSLKPEDTAVYYCTAKVLDSKSSFDYWGKGTQVTVSS”, the “polyreactivity (PSR sort gate)” value was “low polyreactivity”.

“QVQLVESGGGLVQAGGSLRLSCAASGFIFWLYAMGWYRQAPGKERELVATITYSDGSTYYADSVKGRFTISRDNAKNTVYLQMNSLKPEDTAVYYCAAEVYYGYDYWGQGTQVTVSS”: the “polyreactivity (PSR sort gate)” value is on record as “low polyreactivity”.

With “QVQLVESGGGLVQAGGSLRLSCAASGFIFWPYAMGWYRQAPGKESELVAAITTGGSTNYADSVKGRFTISRDNAKNTVYLQMNSLKPEDTAVYYCAKGYYFGYYEFDYWGQGTQVTVSS”, the “polyreactivity (PSR sort gate)” value is “high polyreactivity”.

On to “QVQLVESGGGLVQAGGSLRLSCAASGFIFWPYVMGWYRQEPGTDRELVAAISLGDGSTYYADSVKGRFRLSRDHAKNTVYLQMNSLKPEDTAVYYCAADVTVAWYPVYPGFYYWGQGTQVTVSS”, for which the “polyreactivity (PSR sort gate)” value was “low polyreactivity”.

On to “QVQLVESGGGLVQAGGSLRLSCAASGFIFWSYAMGWYRQAPGKERELVAAIDLTGGSTYYADSVKGRFTISRDNAKNTVYLQMNSLKPEDTAVYYCNADGDSYAFTNSDSGFDYWGQGTQVTVSS”, for which the “polyreactivity (PSR sort gate)” value is “low polyreactivity”.

In the case of “QVQLVESGGGLVQAGGSLRLSCAASGFIFWSYAMGWYRQERGNEREWVAAISWSGGRTYYADSVKGRFTISRDNAKNTVYLQMNSLKPEDTAVYYCAAVKRDSSQYPALDYWGQGTQVTVSS”, the “polyreactivity (PSR sort gate)” value is “high polyreactivity”.

Regarding “QVQLVESGGGLVQAGGSLRLSCAASGFIFWWYAMGWYRQAPGKERELVATITASVGSTNYADSVKGRFTISRDNAKNTVYLQMNSLKPEDTAVYYCATDIIGAIRDWDHTRMDYWGQGTQVTVSS”, the “polyreactivity (PSR sort gate)” value is “low polyreactivity”.

Consider “QVQLVESGGGLVQAGGSLRLSCAASGFIFWYYAMGWSRQAPGKERELVAAISKSGGRTYYADSVKGRFTISRDNAKNTVYLQMNSLKPEDTAVYYCARRAYLSYGYWSDYWGQGTQVTVSS”, for which the “polyreactivity (PSR sort gate)” value was “high polyreactivity”.

For “QVQLVESGGGLVQAGGSLRLSCAASGFIFWYYAMGWYRQAPGKERELVAAISSRGGSTYYADSVKGRFTISRDNAKNTVYLQMNSLKPEDTAVYYCNARYVYYGSGNDYWGQGTQVTVSS”, the “polyreactivity (PSR sort gate)” value is “high polyreactivity”.

With “QVQLVESGGGLVQAGGSLRLSCAASGFIFWYYGMGWYRPAPGKERELVATITSGGSTTYADSVKGRFTISRDNAKNTVYLQMNSLKPEDTAVYYCAADLFYGYYSQADFEYWGQGTQVTVSS”, the “polyreactivity (PSR sort gate)” value was “high polyreactivity”.

For the sequence “QVQLVESGGGLVQAGGSLRLSCAASGFIFYAYAMGWYRQAPGKERELVAAITRSGGSTYYADSVKGRFTISRDNAKNTVYLQMNSLKPEDTAVYYCAARQRTKLGYWGQGTQVTVSS”, the “polyreactivity (PSR sort gate)” value is on record as “high polyreactivity”.

“QVQLVESGGGLVQAGGSLRLSCAASGFIFYDYAMGWYRQAPGKERELVAAISKRGGSTYYADSVKGRFTISRDNAKNTVYLQMNSLKPEDTAVYYCAATSYRRTGYNYWGQGTQVTVSS”: the “polyreactivity (PSR sort gate)” value is listed as “high polyreactivity”.

With “QVQLVESGGGLVQAGGSLRLSCAASGFIFYDYDMGWYRQAPGKERELVAAITYSGGSTYYADSVKGRFTISRDNAKNTVYLQMNSLKPEDTAVYYCAAVKSRYAEAVDYYYWGQGTQVTVSS”, the “polyreactivity (PSR sort gate)” value is on record as “low polyreactivity”.

Source of the values: the nanobody polyreactivity screen of Harvey et al. (2022).
